167 variants from the RNAGym collection of RNA variant scans (doi:10.7554/elife.90254) can be followed below.

First the molecules themselves.
B1: OR4K15 (parent)
chain: GUUAACGGUCAUAGGCCAUGGAAACUAGGAGCACCAUUUCGCUGCCAGUGAAGAAAUGAACAAAGAAAAUCUGGGCCAGGCAGGCAUCAAAAGAAAUAGUCUUGCGCUCAACCAGAAAGUCUGUAAUCAUUUUAAGGGUA

The series covers variants of B1. The experiment in a line: self-cleavage, relative activity (ratio to wild type); higher = more cleavage; in vitro, sequencing; the parent is a self-cleaving ribozyme.
On to A18U A114U, for which the self-cleavage came to 0.08. Then A18U A114C, with 0.03; and C16A A56G, with 0.41; and A18U A92U, with 1.25. Then A18U A67G, with 1.53; and A18G A24C, with 0.96.

For A18U A126G, the self-cleavage amounted to 1.86. On to A18G A86G, for which the self-cleavage came to 1.99. For the variant A18G U49C, the self-cleavage was found to be 1.43. As for A18G A126G, the self-cleavage came to 0.8. In the case of U19A A33G, the self-cleavage is 0.62. For U19C A91U the value was 1.37. Then A18G A134G, with 1.8; and A18G U97C, with 1.42; and A18U A96U, with 1.88. Consider A18U A96G, for which the self-cleavage amounted to 1.62. Then U19C A111G, with 0.03; and U19A U120G, with 1.35.

Regarding U19C A60G, the self-cleavage worked out at 1.23. Then A18U A94U, with 1.11. Then A18G G75C, with 0.16.

C16U U102C: the self-cleavage came to 2.01. Then U19A U122C, with 0.71; and C16G A54G, with 0.89; and U19C, with 1.17. U19A: the self-cleavage was 1.16. With A18C C71U, the self-cleavage came out at 0.35. Take A18G A54G: the self-cleavage was found to be 0.96.

Take A18G A54U: the self-cleavage came out at 1.25. For U19A C77U the value was 1.25; for C17A G73A, 0.16; for U19A A69G, 1.14. Then C16G, with 0.85; and C16U, with 1.25; and U19C A78G, with 0.29. For the variant C17U A117G, the self-cleavage came out at 1.84. In the case of U19C A62C, the self-cleavage was determined as 1.65. With U19C A62G, the self-cleavage was 0.83. U19C A118C: the self-cleavage stood at 1.15. For U19C A118U the value was 0.77; for U19A A56G, 1.6.

As to A18G A91G, the self-cleavage was determined as 1.41.

Regarding A18C U19C, the self-cleavage was found to be 1.5. Then C16U A129C, with 1.3; and U19A A118G, with 0.88; and A18U A24U, with 1.36. Then A18G U38C, with 0.46; and A18G U38A, with 1.27. Regarding U19A G44A, the self-cleavage came to 2.16. Then U19C A22G, with 1.12; and U19C A22U, with 1.23. For C17A G20A the value was 1.56; for C16G G83A, 1.21; for U19A A91G, 1.06. Consider U19A A91C, for which the self-cleavage was determined as 1.85. As for A18G U130C, the self-cleavage came out at 1.01. For the variant A18G U130A, the self-cleavage was 1.84.

As to A18G U130G, the self-cleavage was found to be 1.61.

As to A18U A55G, the self-cleavage is 1.85. For A18U A55U the value was 1.49; for A18U U127A, 2.41.

With A18G G83A, the self-cleavage is 1.54.

With A18G C85U, the self-cleavage is 0.98. With U19C A82U, the self-cleavage stood at 0.21.

For C16U U70C, the self-cleavage worked out at 0.79. Then U19A A86G, with 2.13. For A18G A82G the value was 0.98; for A18U C128U, 1.55; for C16U A90G, 1.55. Then A18G A89U, with 1.48; and A18C A62G, with 1.36. Consider A18C A62C, for which the self-cleavage was determined as 1.25. Regarding A18U A60G, the self-cleavage was determined as 0.68. Regarding U19A A117U, the self-cleavage amounted to 0.55.

U19A A117G: the self-cleavage turned out to be 1.57. U19A U100C: the self-cleavage was determined as 1.68. As for A18U A47U, the self-cleavage is 0.78. For C16A G80U the value was 0.12. As for A18G C101A, the self-cleavage worked out at 0.06. For A18U U120C the value was 1.1; for U19A A111U, 0.09. As for C16G A78G, the self-cleavage was 0.55.

On to C16G A78U, for which the self-cleavage came out at 0.66. For C16U U43A the value was 0.54; for A18U A30U, 1.57; for U19C A59G, 1.55.

Regarding U19C A59U, the self-cleavage was 0.81. Consider C16A A89G, for which the self-cleavage worked out at 1.37. Turning to U19C C61U, the self-cleavage was 1.56. In the case of A18G C32U, the self-cleavage amounted to 1.17. Then A18G U120A, with 2.34; and A18G U120C, with 1.16; and U19C A64U, with 1.45. Take U19C A64G: the self-cleavage was 1.09. For the variant A18G U19G, the self-cleavage stood at 0.71. For C17U U37C the value was 1; for C16G A66G, 1.14; for U19C A117C, 0.71. For U19C A117U the value was 0.58; for U19A A94G, 1.89. For the variant A18U A56G, the self-cleavage came to 1.48. Then U19C A66G, with 1.62; and U19C A66U, with 0.38.

Turning to C16U A94G, the self-cleavage stood at 0.94. For C17U A33G the value was 1.07; for A18G A23G, 1.01; for A18U U39A, 1.05. For A18U U39G the value was 0.98; for A18U U39C, 1.81; for A18G G73U, 0.23. As for C17U A116G, the self-cleavage was 0.47. Regarding A18C A60G, the self-cleavage came out at 2.54. Consider A18U U70A, for which the self-cleavage is 1.35. For C16A A126G, the self-cleavage came to 1.2. Then U19A U87C, with 0.97. Then U19C A51G, with 0.51; and C17U A69G, with 0.62; and U19A G75C, with 0.16. On to A18G A67U, for which the self-cleavage was determined as 1.79. Then A18G A67G, with 1.03. For A18G A117U the value was 1.01; for C17U G83A, 1.07. Regarding U19A A54U, the self-cleavage is 1.8. For U19A A54G the value was 1.15; for A18G A47G, 1.14. For A18C A22U the value was 1.71; for A18C A22G, 1.85.

In the case of A18G U108C, the self-cleavage is 0.02.

As for A18G U108A, the self-cleavage was determined as 0.03.

As for A18U A27G, the self-cleavage was 1.13. As to A18G A125G, the self-cleavage worked out at 0.94. Then C17G A54G, with 0.86. Then C16U C32G, with 0.15; and C16G A59U, with 1.17. A18U A117U: the self-cleavage came out at 0.76.

U19C A140U: the self-cleavage is 1.21. With U19C A30G, the self-cleavage was determined as 0.94. For A18C U131C the value was 0.73; for U19A G53A, 1.39; for A18U A23G, 1.26. For A18U A23U the value was 1.88; for A18G G53U, 1.66. On to A18C A54G, for which the self-cleavage worked out at 0.89. For A18G A68U, the self-cleavage was found to be 1.33.

With C17U U38C, the self-cleavage was 1.28. For the variant C16U A27G, the self-cleavage was 0.94.

As for C17U A51G, the self-cleavage turned out to be 0.85. Then A18U U72C, with 0.1. For the variant A18U U108C, the self-cleavage amounted to 0.01.

On to A18U U37G, for which the self-cleavage came to 1.12.

For the variant U19C A126G, the self-cleavage came to 1.48.

Turning to C16G A135G, the self-cleavage was 0.74. For C16U A117G the value was 1.84; for A18G A51G, 1.86. Then A18G A51U, with 1.15; and A18G U124G, with 0.94; and A18G U124A, with 0.9. Then C16U U122C, with 1.91; and A18G U87A, with 1.14; and A18G U87C, with 1.27.

For the variant C16A A60G, the self-cleavage worked out at 0.51. For A18G A94G the value was 1; for C16A U127C, 0.13. On to U19C C40U, for which the self-cleavage worked out at 1.67. Then U19A A116U, with 0.43; and U19A A116C, with 0.09. Regarding A18G C109A, the self-cleavage came out at 0.34.
